Data: patent publication US20250235501A1 (UNIVERSITY OF CONNECTICUT, published 2025)

Biological target: T1, Endogenous TRPM2 of mouse brain and cultured mouse cortical neurons (mouse, UniProt Q91YD4 1-1506)
T1 construct: whole, on cells
Experiment: co-IP with anti-TRPM2, western blot, PKCγ/TRPM2 ratio, brain tissue
Description: Thus, whether PKC interacts with TRPM2 was investigated.
NP-40 lysis buffer ([…], 150 mM NaCl, 1 mM EDTA, 50 mM Tris, pH=8.0) containing proteinase inhibitors (Sigma-Aldrich, 539131-10VL) and phosphatase inhibitors (Thermal Fisher Scientific, 78428) was used to lyse both cultured cells and frozen brain tissue. For transfected cells, proteins were extracted 36 hours after transfection. Cell and tissue lysate were lysed by ultrasound using an ultrasonic cleaner (Thermal Fisher Scientific) filled with ice-cold water for 30 min. After incubated on ice for 1 h, lysate was centrifuged at 13000 g for 30 min and supernatant was collected. Protein concentration was measured using Pierce™ Rapid Gold BCA Protein Assay Kit (Thermal Fisher Scientific, A53225). 300 μg of protein was taken and diluted using NP-40 lysis buffer to make a total volume of 500 μl. Unused protein was allocated and frozen at −80° C. for future use. Appropriate amount of antibody was added based on instruction. After protein-antibody mixture was incubated on ice for 2 h, 25 μL of pre-washed Protein A/G PLUS-Agarose (Santa Cruz Biotechnology, sc-2003) was added, and the whole mixture was incubated at 4° C. for overnight. Then the mixture was centrifuged at 2500 g for Imin to get agarose beads. […] Then samples were ready for western blotting analysis.

T1 sequence (Q91YD4 whole entry): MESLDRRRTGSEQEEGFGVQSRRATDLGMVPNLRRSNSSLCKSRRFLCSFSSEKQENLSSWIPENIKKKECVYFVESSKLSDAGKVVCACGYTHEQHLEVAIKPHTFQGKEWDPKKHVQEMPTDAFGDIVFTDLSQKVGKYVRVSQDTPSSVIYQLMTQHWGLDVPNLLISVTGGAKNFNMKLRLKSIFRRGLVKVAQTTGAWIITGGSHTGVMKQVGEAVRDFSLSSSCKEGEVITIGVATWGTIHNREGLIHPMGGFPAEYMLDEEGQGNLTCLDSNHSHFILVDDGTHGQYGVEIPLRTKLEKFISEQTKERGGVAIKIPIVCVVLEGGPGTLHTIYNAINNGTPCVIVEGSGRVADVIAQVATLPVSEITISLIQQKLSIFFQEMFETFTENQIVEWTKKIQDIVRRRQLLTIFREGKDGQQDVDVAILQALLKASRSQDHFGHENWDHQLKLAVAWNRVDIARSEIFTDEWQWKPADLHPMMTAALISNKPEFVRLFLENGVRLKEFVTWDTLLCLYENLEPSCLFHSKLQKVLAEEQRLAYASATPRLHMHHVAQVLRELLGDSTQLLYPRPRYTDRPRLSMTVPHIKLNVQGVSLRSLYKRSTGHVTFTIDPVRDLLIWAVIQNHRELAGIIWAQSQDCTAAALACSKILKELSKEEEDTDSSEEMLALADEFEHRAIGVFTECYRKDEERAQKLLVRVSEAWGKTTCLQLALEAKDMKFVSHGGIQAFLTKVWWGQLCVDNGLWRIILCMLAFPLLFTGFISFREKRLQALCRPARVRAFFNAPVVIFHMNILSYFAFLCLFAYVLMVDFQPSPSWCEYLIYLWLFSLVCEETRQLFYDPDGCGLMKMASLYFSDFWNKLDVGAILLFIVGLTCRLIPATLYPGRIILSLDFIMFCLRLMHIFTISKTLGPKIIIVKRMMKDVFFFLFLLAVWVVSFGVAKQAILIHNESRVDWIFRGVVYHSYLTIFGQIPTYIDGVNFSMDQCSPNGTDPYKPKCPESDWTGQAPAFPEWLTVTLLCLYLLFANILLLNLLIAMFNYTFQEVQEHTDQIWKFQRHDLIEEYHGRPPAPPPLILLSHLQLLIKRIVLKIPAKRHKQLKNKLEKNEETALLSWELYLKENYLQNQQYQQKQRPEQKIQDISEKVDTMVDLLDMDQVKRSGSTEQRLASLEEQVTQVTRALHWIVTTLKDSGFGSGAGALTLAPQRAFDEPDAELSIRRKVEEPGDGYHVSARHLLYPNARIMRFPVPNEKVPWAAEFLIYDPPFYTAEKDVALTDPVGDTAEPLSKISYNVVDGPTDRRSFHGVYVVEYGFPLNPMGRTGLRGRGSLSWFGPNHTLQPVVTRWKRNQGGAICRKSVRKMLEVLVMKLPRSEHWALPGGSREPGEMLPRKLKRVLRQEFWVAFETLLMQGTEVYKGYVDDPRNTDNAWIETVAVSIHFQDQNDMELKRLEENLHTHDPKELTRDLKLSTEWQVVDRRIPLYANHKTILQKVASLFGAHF

B1: Endogenous PKCγ of mouse brain and cultured mouse cortical neurons (enzyme)
chain: not shown
notes: whole, on cells; also called neuron-specific PKC
  amount of PKCγ pulled down by anti-TRPM2, MCAO against sham mice: ~1.5 fold
